{"source": "patent EP3168228A1", "about": "(Spiber Technologies AB, dated 2017)", "key": {"[1]": {"molecular_target": "the molecule itself", "assay": "SDS-PAGE under non-reducing conditions after thrombin cleavage, self-association"}, "[2]": {"molecular_target": "wildtype NT (NTwt), N-terminal fragment of Euprosthenops australis major spidroin 1 (MaSp1) (Euprosthenops australis)", "assay": "tryptophan fluorescence ratio 339/351 nm against pH, 5 µM protein, two-state fit of the monomer-dimer equilibrium"}, "[3]": {"molecular_target": "the molecule itself", "assay": "tryptophan fluorescence ratio 339/351 nm against pH (self-association, dimerization)"}, "[4]": {"molecular_target": "the molecule itself", "assay": "gel filtration on Superdex-200, self-association"}, "[5]": {"molecular_target": "the molecule itself", "assay": "gel filtration in 20 mM Tris, pH 8, self-association"}}}
{"binder": "Bri2113-231 protein (Bri2-BRICHOS), truncated BRICHOS domain of Bri2 (other, Released from the NT fusion proteins by thrombin; A 12 kDa band is said to be a truncated form, probably cleaved unspecifically by thrombin; also called Bri2 BRICHOS domain) QTIEENIKIFEEEEVEFISVPVPEFADSDPANIVHDFNKKLTAYLDLNLDKCYVIPLNTSIVMPPRNLLELLINIKAGTYLPQSYLIHEHMVITDRIENIDHLGFFIYRLCHDKETYKL", "values": [{"measurement": "binding result", "setting": "[1]", "result": "binds"}]}
{"binder": "wildtype NT (NTwt), N-terminal fragment of Euprosthenops australis major spidroin 1 (MaSp1) (protein) SHTTPWTNPGLAENFMNSFMQGLSSMPGFTASQLDDMSTIAQSMVQSIQSLAAQGRTSPNKLQALNMAFASSMAEIAASEEGGGSLSTKTSSIASAMSNAFLQTTGVVNQPFINEITQLVSMFAQAGMNDVSA", "values": [{"measurement": "pKa of dimerization", "setting": "[2]", "result": 6.5, "unit": "pH"}]}
{"binder": "NTD40K/K65D, charge-reversed double mutant of the NT fragment of Euprosthenops australis MaSp1 (other, also called charge-reversed NT mutant; mutant NT) SHTTPWTNPGLAENFMNSFMQGLSSMPGFTASQLDKMSTIAQSMVQSIQSLAAQGRTSPNDLQALNMAFASSMAEIAASEEGGGSLSTKTSSIASAMSNAFLQTTGVVNQPFINEITQLVSMFAQAGMNDVSA", "values": [{"measurement": "binding result", "setting": "[3]", "result": "no binding (tested: 5 µM protein, pH 5.6-8.0)"}]}
{"binder": "NTD40K/K65D-β17 fusion protein (other) MGHHHHHHMSHTTPWTNPGLAENFMNSFMQGLSSMPGFTASQLDKMSTIAQSMVQSIQSLAAQGRTSPNDLQALNMAFASSMAEIAASEEGGGSLSTKTSSIASAMSNAFLQTTGVVNQPFINEITQLVSMFAQAGMNDVSAGNSLVPRGSMGEQKLISEEDLGMQISMDYEIKFHGDGDNFDLNLDDSGGDLQLQIRGPGGRVHVHIHSSSGKVDFHVNNDGGDVEVKMH", "values": [{"measurement": "binding result", "setting": "[4]", "result": "binds"}]}
{"binder": "NTwt-Bri2113-231 fusion protein (other, also called NTwt-Bri2-BRICHOS) MGHHHHHHMSHTTPWTNPGLAENFMNSFMQGLSSMPGFTASQLDDMSTIAQSMVQSIQSLAAQGRTSPNKLQALNMAFASSMAEIAASEEGGGSLSTKTSSIASAMSNAFLQTTGVVNQPFINEITQLVSMFAQAGMNDVSAGNSLVPRGSQTIEENIKIFEEEEVEFISVPVPEFADSDPANIVHDFNKKLTAYLDLNLDKCYVIPLNTSIVMPPRNLLELLINIKAGTYLPQSYLIHEHMVITDRIENIDHLGFFIYRLCHDKETYKL", "values": [{"measurement": "binding result", "setting": "[5]", "result": "binds"}]}
{"binder": "NTD40K/K65D-Bri2113-231 fusion protein (other, also called NTD40K/K65D-Bri2-BRICHOS) MGHHHHHHMSHTTPWTNPGLAENFMNSFMQGLSSMPGFTASQLDKMSTIAQSMVQSIQSLAAQGRTSPNDLQALNMAFASSMAEIAASEEGGGSLSTKTSSIASAMSNAFLQTTGVVNQPFINEITQLVSMFAQAGMNDVSAGNSLVPRGSQTIEENIKIFEEEEVEFISVPVPEFADSDPANIVHDFNKKLTAYLDLNLDKCYVIPLNTSIVMPPRNLLELLINIKAGTYLPQSYLIHEHMVITDRIENIDHLGFFIYRLCHDKETYKL", "values": [{"measurement": "binding result", "setting": "[5]", "result": "binds"}]}
